Target: mS194 (Spike 194–203 monomer) (Severe acute respiratory syndrome coronavirus 2, UniProt P0DTC2)

Substance	effect of fAβ on mS194 aggregation	increase of ThT fluorescence intensity of mS194 versus mS194 alone
fAβ25–35 (GSNKGAIIGLM; Amyloid-beta protein 42 fibrillar; UniProt P05067 696-706, looked up, fragment)	acceleration of mS194 aggregation	4 fold
fAβ1–42	acceleration of mS194 aggregation	–
